The values below come from article PMC9865144, “Crystal Structure of the SH3 Domain of ASAP1 in Complex with the Proline Rich Motif (PRM) of MICAL1 Reveals a Unique SH3/PRM Interaction Mode” (International Journal of Molecular Sciences, 2023).

The target in one assay is APC PRM (Homo sapiens) (UniProt P25054). Conditions: cited from earlier work.
Assay [1] addresses T1, ASAP1-SH3 (residue 1087–1147), Q9QWY8.
T1 chain: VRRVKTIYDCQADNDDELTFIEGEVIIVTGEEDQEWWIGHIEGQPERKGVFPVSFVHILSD
As to the kind of experiment: ITC. Conditions: chain shown with the change.

A further assay deals with T2, MICAL1-PRM, Q8TDZ2.
T2 chain: EPPPKPPRSCSALAR
As to the kind of experiment: ITC. Conditions: chain shown with the change.

In a further assay the target is T3, FAK1 (Homo sapiens (Human), UniProt Q05397).
T3 chain: EAPPKPSRPGYPSPR
As to the kind of experiment: ITC, Trx fusions.

For another assay, the target named is T4, MICAL1 (Homo sapiens (Human), UniProt Q8TDZ2).
T4 chain: EPPPKPPRSCSALAR
As to the kind of experiment: ITC, Trx fusions. In general terms: ITC needs no label: the signal is the heat of the interaction.

Another assay deals with T5, FYB1 (Homo sapiens (Human), UniProt O15117).
T5 chain: TLGPPPPKPNRPPNV
As to the kind of experiment: ITC, Trx fusions.

Assay [2] deals with T6, ASAP1-SH3 (residue 1087–1147) (mouse, UniProt Q9QWY8 1087-1147).
T6 chain: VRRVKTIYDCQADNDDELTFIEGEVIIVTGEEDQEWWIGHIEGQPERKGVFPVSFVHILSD
As to the kind of experiment: ITC.

Assay [3] deals with T7, SKAP1-SH3 (residue 294–355) (human, UniProt Q86WV1 294-355).
T7 chain: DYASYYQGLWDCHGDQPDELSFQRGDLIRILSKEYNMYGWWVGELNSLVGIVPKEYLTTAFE
As to the kind of experiment: ITC.

Assay [4] concerns the target T8, GRAF2-SH3 (residue 728–786) (human, UniProt A1A4S6 728-786).
T8 chain: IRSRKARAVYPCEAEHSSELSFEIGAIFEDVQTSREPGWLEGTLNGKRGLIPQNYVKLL
As to the kind of experiment: ITC.

Assay [5] has as its target T9, SKAP1-SH3 (residue 294–355) (human, UniProt Q86WV1 294-355).
T9 construct: SKAP1 (Src kinase associated phosphoprotein 1), human, SH3 domain, residue 294-355; also called SH3^AGS of SKAP1; source: E. coli BL21(DE3), purified (Ni-NTA, Superdex-200 gel filtration)
T9 sequence (looked up): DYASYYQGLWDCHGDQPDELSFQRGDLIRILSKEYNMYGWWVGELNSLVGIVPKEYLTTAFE
The experiment in a line: ITC; PEAQ-ITC; 400 μM in the syringe, 40 μM in the cell; 50 mM Tris pH 7.5, 100 mM NaCl, 1 mM DTT, 1 mM EDTA; one-site binding model. Conditions: both partners purified.

Assay [6] concerns the target T10, ASAP1-SH3 (residue 1087–1147) (mouse, UniProt Q9QWY8 1087-1147).
T10 construct: ASAP1, mouse, SH3 domain, residue 1087-1147; The Trx-His6 tag is followed by a 3C protease cleavage site; The limits are stated for the crystallisation; also called SH3 domain of ASAP1; source: E. coli BL21(DE3), purified (Ni-NTA, Superdex-200 gel filtration)
T10 sequence (looked up): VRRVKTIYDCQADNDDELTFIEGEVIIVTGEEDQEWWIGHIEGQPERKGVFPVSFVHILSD
Described as above. Conditions: both partners purified.

In assay [7] the target is T11, GRAF2-SH3 (residue 728–786) (human, UniProt A1A4S6 728-786).
T11 construct: GRAF2 (GTPase Regulator associated with focal adhesion kinase 2), human, SH3 domain, residue 728-786; also called SH3^AGS of GRAF2; source: E. coli BL21(DE3), purified (Ni-NTA, Superdex-200 gel filtration)
T11 sequence (looked up): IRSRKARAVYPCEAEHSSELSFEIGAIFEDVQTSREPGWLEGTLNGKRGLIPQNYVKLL
The assay is described as above. Conditions: both partners purified.

The target of assay [8] is T6, ASAP1-SH3 (residue 1087–1147). The experiment in a line: ITC.
The target of assay [9] is ASAP1-SH3 (residue 1087–1147) (mouse) (UniProt Q9QWY8). As to the kind of experiment: ITC; PEAQ-ITC; 400 μM in the syringe, 40 μM in the cell; 50 mM Tris pH 7.5, 100 mM NaCl, 1 mM DTT, 1 mM EDTA; one-site binding model.

Like-named read-outs stand apart in the source and are kept apart here.

What is called Kd is the constant that tells how readily two partners part at equilibrium. Turning to ASAP1 SH3 (from UniProt Q9ULH1), the dissociation constant Kd with APC PRM (Homo sapiens) was 24 µM.

B1: MICAL1-PRM, Q8TDZ2 K832R (peptide)
chain: EPPPRPPRSCSALAR
B1: the Kd in assay [1] came out at 0.35 µM.

B2: ASAP1-SH3 (residue 1087–1147), Q9QWY8 D1099K (protein)
chain: VRRVKTIYDCQAKNDDELTFIEGEVIIVTGEEDQEWWIGHIEGQPERKGVFPVSFVHILSD
With B2, in the assay with MICAL1-PRM, Q8TDZ2, the dissociation constant Kd was 109 µM.

B3: ASAP1-SH3 (residue 1087–1147), Q9QWY8 C1096F (protein)
chain: VRRVKTIYDFQADNDDELTFIEGEVIIVTGEEDQEWWIGHIEGQPERKGVFPVSFVHILSD
Consider B3, for which, in the assay with MICAL1-PRM, Q8TDZ2, the Kd worked out at 15.7 µM.

B4: ASAP1_SH3 (protein)
chain: VRRVKTIYDCQADNDDELTFIEGEVIIVTGEEDQEWWIGHIEGQPERKGVFPVSFVHILSD
For the molecule B4, the figures for the dissociation constant Kd with FAK1, with MICAL1 and with FYB1 were 1.97 µM, 0.82 µM and 7.59 µM, respectively.

B5: FYB1-PRM (residue 362–376) (peptide)
chain: RPPNVDLTKFHKTSS
For B5, the figures for the dissociation constant Kd in assay [2], in assay [3] and in [4] were 7.59 µM, 0.29 µM and 3.14 µM, respectively.

B6: FAK1-PRM (residue 710–724) (peptide, UniProt Q05397 710-724, looked up)
chain: EAPPKPSRPGYPSPR
notes: FAK1, human, proline rich motif, residue 710-724; also called PRM^Px+P from FAK1; source: E. coli BL21(DE3), purified (Ni-NTA, Superdex-200 gel filtration)
As to B6, the binding result in assay [5], in [6] and in assay [7] was “binds” in each case.

B7: MICAL1-loop3 (domain or fragment)
chain: AEGSDRGPESPELPTPSENSMPPGLSTPTASQEGAGPVPDPSQPTRRQIRLSSPERQRLSSLNLTPDPEMEPPPKPPRSCSALARHALESSFVGWGLPVQSPQALVAMEKEEKESPFSSEEEEEDVPLDSDVEQALQTFAKTSGTMNNYPTWRRTLLRRA
On to B7, for which binding in [8] was put at a Kd of 1.1 µM.

B8: GRAF2_SH3 (protein)
chain: IRSRKARAVYPCEAEHSSELSFEIGAIFEDVQTSREPGWLEGTLNGKRGLIPQNYVKLL
For the molecule B8, the Kd with FAK1 was 6.06 µM; in the assay with MICAL1 it was 1.33 µM; with FYB1, 3.14 µM.

B9: MICAL1-PRM (peptide)
chain: EPPPKPPRSCSALAR
With B9, the values for the Kd in [9] and in assay [8] were 1 µM and 0.8 µM, respectively.

B10: SKAP1_SH3 (protein)
chain: DYASYYQGLWDCHGDQPDELSFQRGDLIRILSKEYNMYGWWVGELNSLVGIVPKEYLTTAFE
On to B10, for which the equilibrium dissociation constant (Kd) with FAK1 was determined as 7.08 µM; in the assay with MICAL1 it was 5.99 µM; in the assay with FYB1 it was 0.29 µM.

B11: MICAL1-PRM, Q8TDZ2 K832P (peptide)
chain: EPPPPPPRSCSALAR
On to B11, for which, in assay [1], the Kd amounted to 17 µM.
